Key:
[1] = target: Abd-A;Exd (in Exd/Hth heterodimer);Hth (in heterodimer) (Drosophila melanogaster?;Drosophila …, UniProt P29555;P40427;O46339 261-590;1-376;1-487, ||); test: EMSA; Abd-A 37.5-300 nM with 75 nM Exd/Hth; highly cooperative, third slower complex; Native PAGE EMSA, probe 0.36 uM, triplicate; buffer, salt, pH and temperature not given (as previously described). Further probes (single/paired sites, Hox point mutants; percent bound) only in S4 and S5 Figs, not in the material, number of rows unknown; conditions: protein: recombinant;recombinant;recombinant; tags: His;untagged;His; copies: 1;1;1
[2] = target: T1, Exd51A (ExdN51A);Hth (in heterodimer) (Drosophila melanogaster?;Drosophila …, UniProt P40427;O46339 1-376;1-487, N291A|); test: EMSA; 200 nM heterodimer, no Abd-A; no significant binding; Native PAGE EMSA, probe 0.36 uM, triplicate; buffer, salt, pH and temperature not given (as previously described). Further probes (single/paired sites, Hox point mutants; percent bound) only in S4 and S5 Figs, not in the material, number of rows unknown; conditions: protein: recombinant;recombinant; tags: ;His; copies: 1;1
T1 sequence 1: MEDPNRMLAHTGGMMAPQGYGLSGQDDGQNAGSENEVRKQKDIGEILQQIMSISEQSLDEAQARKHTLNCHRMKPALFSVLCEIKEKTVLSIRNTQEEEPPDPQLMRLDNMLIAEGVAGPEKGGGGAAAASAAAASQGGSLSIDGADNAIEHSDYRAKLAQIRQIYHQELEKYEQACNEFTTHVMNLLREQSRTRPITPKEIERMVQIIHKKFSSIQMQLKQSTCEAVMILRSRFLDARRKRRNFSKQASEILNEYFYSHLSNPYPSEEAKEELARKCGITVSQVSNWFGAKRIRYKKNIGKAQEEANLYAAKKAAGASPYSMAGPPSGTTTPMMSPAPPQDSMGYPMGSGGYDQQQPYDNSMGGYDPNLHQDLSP
T1 sequence 2: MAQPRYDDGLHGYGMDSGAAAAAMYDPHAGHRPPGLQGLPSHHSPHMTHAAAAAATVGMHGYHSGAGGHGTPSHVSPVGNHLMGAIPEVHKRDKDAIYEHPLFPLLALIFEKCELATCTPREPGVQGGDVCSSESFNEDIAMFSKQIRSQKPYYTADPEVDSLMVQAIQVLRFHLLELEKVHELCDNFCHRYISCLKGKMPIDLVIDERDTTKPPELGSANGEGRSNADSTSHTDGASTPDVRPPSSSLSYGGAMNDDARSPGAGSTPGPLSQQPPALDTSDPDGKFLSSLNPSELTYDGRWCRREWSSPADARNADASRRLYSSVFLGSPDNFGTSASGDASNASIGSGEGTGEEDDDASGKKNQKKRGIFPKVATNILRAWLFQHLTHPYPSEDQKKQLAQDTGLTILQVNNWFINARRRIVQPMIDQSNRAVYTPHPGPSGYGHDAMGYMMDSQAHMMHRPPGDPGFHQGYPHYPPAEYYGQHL

[3] = target: Abd-A;Exd51A (ExdN51A);Hth (in heterodimer) (Drosophila melanogaster?;Drosophila …, UniProt P29555;P40427;O46339 261-590;1-376;1-487, |N291A|); test: EMSA; Abd-A 37.5-300 nM with 200 nM ExdN51A/Hth; significant cooperative complex; Native PAGE EMSA, probe 0.36 uM, triplicate; buffer, salt, pH and temperature not given (as previously described). Further probes (single/paired sites, Hox point mutants; percent bound) only in S4 and S5 Figs, not in the material, number of rows unknown; conditions: protein: recombinant;recombinant;recombinant; tags: His;;His; copies: 1;1;1
Abd-A;Exd51A (ExdN51A);Hth (in heterodimer), sequence (P29555 261-590, stated change not applied, one chain of several): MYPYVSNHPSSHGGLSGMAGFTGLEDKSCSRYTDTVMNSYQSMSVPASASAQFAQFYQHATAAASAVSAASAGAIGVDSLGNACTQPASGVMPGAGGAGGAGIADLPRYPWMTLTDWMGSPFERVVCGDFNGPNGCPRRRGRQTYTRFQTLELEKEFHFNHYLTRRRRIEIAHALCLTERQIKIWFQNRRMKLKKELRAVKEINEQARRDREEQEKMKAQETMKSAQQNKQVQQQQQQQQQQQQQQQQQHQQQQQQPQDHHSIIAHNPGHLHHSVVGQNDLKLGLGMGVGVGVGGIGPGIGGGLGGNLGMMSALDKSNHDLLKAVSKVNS

Abd-A;Exd (in Exd/Hth heterodimer);Hth (in heterodimer), sequence (P29555 261-590, one chain of several): as the sequence (P29555 261-590, stated change not applied, one chain of several) above

B1: DCRE wild-type full-length probe (dsDNA)
DNA 1: GGAATTTATGTCCGACAATATTTGGGAAATTAAATCATTCCCGCGGACAGTTTTATAGTGCGGGCGTGGC
DNA 2: GCCACGCCCGCACTATAAAACTGTCCGCGGGAATGATTTAATTTCCCAAATATTGTCGGACATAAATTCC
binding result [1]: binds
binding result [2]: no binding
binding result [3]: binds
